Laboratory results reported in patent publication US20020045591A1, “Methods and therapeutic compositions for treating cancer” (priority 1998, published 2002).

Test system: β-catenin-mediated transactivation
Assay: TOPFLASH luciferase transactivation in SW480 cells (Example 1)
Format: cell-based, human
Settings: SW480 cells transfected with TOPFLASH and N-cadherin derivative, FIG. 6A
Protocol: Cell culture and transfections: CHO and SW480 human colon carcinoma cells were cultured in Dulbecco's modified Eagle's medium containing 10% fetal calf serum in an 8% CO2 incubator at 37° C. Transfections were performed using Lipofectamine (Gibco, BRL, USA) according to the manufacturer's instructions. Stably transfected CHO clones were generated by co-transfection with a plasmid encoding the puromycin resistance gene. Two days after transfection, cells were replated in the presence of 10 μg/ml puromycin (Sigma, Holon, Israel). Stable clones were isolated 2 weeks later and tested for the expression of the transgene by Western blot analysis.
Transactivation assays: CHO cells were transfected with TOPFLASH or FOPFLASH vectors (van de Wetering et al., 1997, ibid) and with pCDNA3 coding for β-galactosidase to normalize for transfection efficiency. The transfection mixture also contained either β-catenin, LEF-1 or cadherin derivatives in different combinations, as indicated. SW480 cells were transfected with TOPFLASH and cadherin derivatives. […] The reactions were stopped with 1 M Na2CO3 and the absorbance at 420 nm was determined. […] The luciferase reaction was monitored by a TD-20e luminometer (Turner, USA) and normalized for the β-galactosidase activity. […]

B1: N-cadherin tail: Cytoplasmic domain of chicken N-cadherin tagged with a Flag epitope (protein)
chain: MKRRDKERQAKQLLIDPEDDVRDNILKYDEEGGGEEDQDYDLSQLQQPDTVEPDAIKPVGIRRLDERPIHAEPQYPVRSAAPHPGDIGDFINEGLKAADNDPTAPPYDSLLVFDYEGSGSTAGSLSSLNSSSSGGEQDYDYLNDWGPRFKKLADMYGGGDD
modifications: left off: small tags and cut ends
- inhibition of TOPFLASH reporter (luciferase) activity: more than 85%
